Results as given in patent US20240409645A1 (DUALYX, published 2024).
Substitutions are numbered along the chain they refer to. Blank lines part the entries; values can stand above or below the binder they belong to.

Columns and labels:
[1] = biological target: T1, human IL-2Rβ (human, UniProt P14784 27-240, limits assumed); assay: P.E. binding ELISA, human IL-2Rβ coated
T1 construct: Recombinant human IL-2Rβ protein, coated on ELISA plates or immobilized on a CM5 chip; also called hu IL-2R; interleukin 2 receptor β-chain
T1 sequence: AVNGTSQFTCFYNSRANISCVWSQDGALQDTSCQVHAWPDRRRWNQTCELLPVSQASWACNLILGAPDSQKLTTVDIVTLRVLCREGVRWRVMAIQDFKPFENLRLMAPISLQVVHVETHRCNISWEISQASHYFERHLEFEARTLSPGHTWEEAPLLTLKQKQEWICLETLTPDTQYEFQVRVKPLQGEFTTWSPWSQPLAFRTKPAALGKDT
Experimental: In a binding ELISA, human or mouse IL-2Rα, IL-2Rβ and IL-2Rγ proteins were coated directly on maxisorp microtiter plates overnight at 4° C. Free binding sites were blocked using 4% Marvel in PBS for 1 hour. Next, 1:5 dilution of P.E. in 1% Marvel/PBS were added to wells and incubated for 1 hour. […] Binding specificity was determined based on O.D. at 450 nm values compared to negative controls.

[2] = biological target: T1, human IL-2Rβ; assay: SPR off-rate ranking of P.E., human IL-2Rβ immobilized
Experimental: SPR was performed to determine dissociation rates using Biacore 3000 instrument (GE Healthcare). Briefly, human and mouse IL-2R proteins were immobilized on carboxylmethyl dextran sensor chip (CM5) at approximately 2500 RUs using amine coupling in acetate buffer (GE Healthcare). The VHH-containing P.E. were loaded with a flow rate of 30 uL/min and the off-rates were measured over a 120s period.

OD450 nm (P.E. binding ELISA) [1]: 0.44 OD450 nm
koff [2]: 0.000497 s⁻¹
B1: FJ1427 P035MP06A08 (VHH)
VHH: EVQLVESGGGLVQAGESLRLSCAASGQYFSTYSMAWFRRTPGKEREFVTIISESGGIKEYVDSVKGRFTVSRDNAKNTVYLQMNSLKPEDTAVYYCAAARDWFARNEYQYDYWGQGTQVTVSS
notes: Soluble VHH in periplasmic extract (P.E.); also called Clone nr

OD450 nm (P.E. binding ELISA) [1]: 0.564 OD450 nm
koff [2]: 0.000147 s⁻¹
B2: FJ1427_P035MP06F09 (VHH)
VHH: QVQLVESGGGLVQAGGSLTLSCAASGRAFSNYPVGWFRQAPGKEREFVAAITWLSGSTLYADSVEGRFTISRDNAKNTVYLLMSSLKPEDTALYFCAAALKTITRGQNDYSYWGQGTQVTVSS
notes: Soluble VHH in periplasmic extract (P.E.); also called Clone nr; 550

OD450 nm (P.E. binding ELISA) [1]: 0.836 OD450 nm
koff [2]: 0.000209 s⁻¹
B3: FJ1427 P035MP06D08 (VHH)
VHH: QVQLVESGGGLVQAGGSLRLSCAVSGDVFVRYTMAWFRQAPGKEREFVASVTDSGRTTEYVDSVKGRFTVSRDNAKNTAYLQMNNLKPEDTAVYYCAANTDYFQIRSLDLNTWGQGTQVTVSL
notes: Soluble VHH in periplasmic extract (P.E.); also called Clone nr; 540

OD450 nm (P.E. binding ELISA) [1]: 0.358 OD450 nm
koff [2]: 0.000208 s⁻¹
B4: FJ1427_P035MP06C10 (VHH)
VHH: B3 VHH with L123S
notes: Soluble VHH in periplasmic extract (P.E.); also called Clone nr; 555

OD450 nm (P.E. binding ELISA) [1]: 0.974 OD450 nm
koff [2]: 0.000198 s⁻¹
B5: FJ1427_P035MP06E04 (VHH)
VHH: B3 VHH with L123S
notes: as for B1

OD450 nm (P.E. binding ELISA) [1]: 0.239 OD450 nm
koff [2]: 0.000196 s⁻¹
B6: FJ1427_P035MP06H03 (VHH)
VHH: B3 VHH with L123S
notes: as for B1

OD450 nm (P.E. binding ELISA) [1]: 0.935 OD450 nm
koff [2]: 0.000188 s⁻¹
B7: FJ1427_P035MP06B04 (VHH)
VHH: B3 VHH with L123S
notes: as for B1

OD450 nm (P.E. binding ELISA) [1]: 0.343 OD450 nm
koff [2]: 0.000274 s⁻¹
B8: FJ1427_P035MP06F08 (VHH)
VHH: B3 VHH with V24A, D109N, L123S
notes: Soluble VHH in periplasmic extract (P.E.); also called Clone nr; 542

OD450 nm (P.E. binding ELISA) [1]: 0.329 OD450 nm
koff [2]: 0.00225 s⁻¹
B9: FJ1427_P035MP06B09 (VHH)
VHH: B3 VHH with F29L, L123S
notes: Soluble VHH in periplasmic extract (P.E.); also called Clone nr; 546

OD450 nm (P.E. binding ELISA) [1]: 1.01 OD450 nm
koff [2]: 0.000285 s⁻¹
B10: FJ1427_P035MP06B07 (VHH)
VHH: B3 VHH with Q1E, L123S
notes: Soluble VHH in periplasmic extract (P.E.); also called Clone nr; 530

OD450 nm (P.E. binding ELISA) [1]: 0.297 OD450 nm
koff [2]: 0.000335 s⁻¹
B11: FJ1427_P035MP06C08 (VHH)
VHH: B3 VHH with V24A, V93I, L123S
notes: as for B1

OD450 nm (P.E. binding ELISA) [1]: 0.313 OD450 nm
koff [2]: 0.000349 s⁻¹
B12: FJ1427_P035MP06H08 (VHH)
VHH: B3 VHH with V24A, V93I, L123S
notes: as for B1

OD450 nm (P.E. binding ELISA) [1]: 0.59 OD450 nm
koff [2]: 0.000885 s⁻¹
B13: FJ1427_P035MP06H05 (VHH)
VHH: B3 VHH with G10R, A23V, S50V, D62G, A79V, L108V, L110N, T112A, L123S
notes: Soluble VHH in periplasmic extract (P.E.); also called Clone nr; 520

OD450 nm (P.E. binding ELISA) [1]: 0.267 OD450 nm
koff [2]: 0.000586 s⁻¹
B14: FJ1427_P035MP06G03 (VHH)
VHH: B3 VHH with A23V, S50V, A79V, L108V, L110N, T112A, L123S
notes: Soluble VHH in periplasmic extract (P.E.); also called Clone nr; 503

OD450 nm (P.E. binding ELISA) [1]: 0.278 OD450 nm
koff [2]: 0.00037 s⁻¹
B15: FJ1427_P035MP06F02 (VHH)
VHH: B3 VHH with V5Q, V24A, E59D, A79V, N85A, R106K, L123S
notes: as for B1

OD450 nm (P.E. binding ELISA) [1]: 0.304 OD450 nm
koff [2]: 0.000483 s⁻¹
B16: FJ1427_P035MP06D05 (VHH)
VHH: B3 VHH with A79V, N85S, D109R, L110A, L123S
notes: as for B1

OD450 nm (P.E. binding ELISA) [1]: 0.187 OD450 nm
koff [2]: 0.00084 s⁻¹
B17: FJ1427_P035MP06C04 (VHH)
VHH: B3 VHH with V5Q, V24A, E59D, A79V, D109E, L110F, L123S
notes: as for B1

OD450 nm (P.E. binding ELISA) [1]: 0.202 OD450 nm
koff [2]: 0.000726 s⁻¹
B18: FJ1427 P035MP06G09 (VHH)
VHH: B3 VHH with A14P, V24A, E59D, A79V, R106K, L110R, L123S
notes: Soluble VHH in periplasmic extract (P.E.); also called Clone nr; 551

OD450 nm (P.E. binding ELISA) [1]: 1.02 OD450 nm
koff [2]: 0.00029 s⁻¹
B19: FJ1427_P035MP06D03 (VHH)
VHH: B3 VHH with V24A, V93I, L123S
notes: Soluble VHH in periplasmic extract (P.E.); also called Clone nr; 500

OD450 nm (P.E. binding ELISA) [1]: 0.264 OD450 nm
koff [2]: 0.00223 s⁻¹
B20: FJ1427_P035MP06B10 (VHH)
VHH: B3 VHH with V24A, F29L, V93I, L123S
notes: Soluble VHH in periplasmic extract (P.E.); also called Clone nr; 554
